Measured values reported in patent publication US20260242419A1, “A CYCLIC PEPTIDE FOR TRAPPING INTERLEUKIN-1 BETA” (Merck Sharp & Dohme LLC, priority 2023, published 2026).
Starred links: 1 amine or outer side, 2 acyl side, 3 side chain; linkers in the order of their positions; H or OH if unused. Non-standard residues stand in square brackets, D forms with d. No end group written: not given here. TyrEtNAc = (2S)-3-[4-(2-acetamidoethoxy)phenyl]-2-amino-propanoic acid, CC(=O)NCCOc1ccc(C[C@H](N[*:1])C(=O)[*:2])cc1; dProc3CH24Pal = (2R,3S)-3-(4-pyridylmethyl)pyrrolidine-2-carboxylic acid, O=C([C@H]1[C@@H](Cc2ccncc2)CCN1[*:1])[*:2]; ThrOBn = (2S,3R)-2-amino-3-benzyloxy-butanoic acid, C[C@@H](OCc1ccccc1)[C@H](N[*:1])C(=O)[*:2]; dPyrimA = (2R)-2-amino-3-pyrimidin-5-yl-propanoic acid, O=C([C@@H](Cc1cncnc1)N[*:1])[*:2]; daMeSMe = (2R)-2-amino-3-methoxy-2-methyl-propanoic acid, COC[C@@](C)(N[*:1])C(=O)[*:2]; ThrOMe = (2S,3R)-2-amino-3-methoxy-butanoic acid, CO[C@H](C)[C@H](N[*:1])C(=O)[*:2]; dPro(4R-(4-pyridylmethyl)) = O=C(O)[C@H]1C[C@@H](Cc2ccncc2)CN1; Trp(βS-Me,4-F) = C[C@@H](c1c[nH]c2cccc(F)c12)[C@H](N)C(=O)O; Bip(4'-CONH2) = NC(=O)c1ccc(-c2ccc(C[C@H](N)C(=O)O)cc2)cc1; Bip(4'-COOH) = N[C@@H](Cc1ccc(-c2ccc(C(=O)O)cc2)cc1)C(=O)O; Ala(1-bicyclo(1.1.1)pentyl) = N[C@@H](CC12CC(C1)C2)C(=O)O; dPro(3S-(4-F-Bn)) = O=C(O)[C@@H]1NCC[C@@H]1Cc1ccc(F)cc1; Trp(4-Cl) = N[C@@H](Cc1c[nH]c2cccc(Cl)c12)C(=O)O; Ala(pyrimidin-5-yl) = N[C@@H](Cc1cncnc1)C(=O)O; Phe(4-CONH2) = NC(=O)c1ccc(C[C@H](N)C(=O)O)cc1; Phe(4-COOH) = N[C@@H](Cc1ccc(C(=O)O)cc1)C(=O)O; Nva(5,5,5-F3) = N[C@@H](CCC(F)(F)F)C(=O)O; Pro(cis-4-F) = O=C(O)[C@@H]1C[C@H](F)CN1; dPhe(4-F) = N[C@H](Cc1ccc(F)cc1)C(=O)O; Ala(4-THP) = N[C@@H](CC1CCOCC1)C(=O)O; Dap(CONH2) = NC(=O)NC[C@H](N)C(=O)O; hTyr = N[C@@H](CCc1ccc(O)cc1)C(=O)O; d(αMeD) = C[C@@](N)(CC(=O)O)C(=O)O; d(αMeN) = C[C@@](N)(CC(N)=O)C(=O)O; h4Pal = N[C@@H](CCc1ccncc1)C(=O)O; hPhe = N[C@@H](CCc1ccccc1)C(=O)O; 4Pal = N[C@@H](Cc1ccncc1)C(=O)O; dCha = N[C@H](CC1CCCCC1)C(=O)O; d(αMeS) = C[C@@](N)(CO)C(=O)O; NMeDab = CN[C@@H](CCN)C(=O)O; Dab = NCC[C@H](N)C(=O)O; Nva = CCC[C@H](N)C(=O)O; Aib = CC(C)(N)C(=O)O

B1: SEQ ID NO: 216 (peptide)
peptide: cyclo([Bip(4'-CONH2)][Ala(1-bicyclo(1.1.1)pentyl)][Phe(4-COOH)]G[Pro(cis-4-F)][Trp(βS-Me,4-F)][Aib]SW[d(αMeS)][Ala(4-THP)]Q[Dab]G[dPro(3S-(4-F-Bn))])
modifications: ring closure inferred; not fully specified (bridges); printed as Bip4CONH2-AlaPent-Phe4COOH-G-Proc4F-SbMeW4F-Aib-S-W-daMeS-AlaTHP4-Q-Dab-G-dProc3Bn4F, cyclic (macrolactam)
B2: SEQ ID NO: 217 (peptide)
peptide: cyclo([Bip(4'-CONH2)][Ala(1-bicyclo(1.1.1)pentyl)][Phe(4-COOH)]G[Pro(cis-4-F)][Trp(βS-Me,4-F)][Aib]SW[d(αMeN)][Ala(4-THP)]Q[Dab]G[dPro(3S-(4-F-Bn))])
modifications: ring closure inferred; not fully specified (bridges); printed as Bip4CONH2-AlaPent-Phe4COOH-G-Proc4F-SbMeW4F-Aib-S-W-daMeN-AlaTHP4-Q-Dab-G-dProc3Bn4F, cyclic (macrolactam)
B3: SEQ ID NO: 218 (peptide)
peptide: cyclo([TyrEtNAc][4Pal][Phe(4-CONH2)]G[Pro(cis-4-F)][Trp(βS-Me,4-F)][Aib]SW[Aib][Ala(pyrimidin-5-yl)]Q[NMeDab]G[dPro(4R-(4-pyridylmethyl))])
modifications: ring closure inferred; not fully specified (bridges)
B4: SEQ ID NO: 219 (peptide)
peptide: cyclo([Bip(4'-COOH)][4Pal][Phe(4-COOH)]G[Pro(cis-4-F)][Trp(βS-Me,4-F)][Aib]SW[d(αMeD)][hTyr]Q[Dab]G[dProc3CH24Pal])
modifications: ring closure inferred; not fully specified (bridges); printed as Bip4CO2H-4Pal-Phe4COOH-G-Proc4F-SbMeW4F-Aib-S-W-daMeD-hY-Q-Dab-G-dProc3CH24Pal, cyclic (macrolactam)
B5: SEQ ID NO: 220 (peptide)
peptide: [Bip(4'-COOH)][4Pal][Phe(4-COOH)]G[Pro(cis-4-F)][Trp(βS-Me,4-F)][Aib]SW[Aib][hTyr]Q[Dab]G[dProc3CH24Pal]
modifications: lactam (positions not given here); also: macrolactam, ring places not given here
B6: SEQ ID NO: 221 (peptide)
peptide: [Bip(4'-COOH)][4Pal][Phe(4-COOH)]G[Pro(cis-4-F)][Trp(βS-Me,4-F)][Aib]SW[d(αMeD)][hPhe]Q[Dab]G[dProc3CH24Pal]
modifications: lactam (positions not given here); also: macrolactam, ring places not given here
B7: SEQ ID NO: 222 (peptide)
peptide: [Bip(4'-COOH)][4Pal][Phe(4-COOH)]G[Pro(cis-4-F)][Trp(βS-Me,4-F)][Aib]SW[d(αMeD)][h4Pal]Q[Dab]G[dProc3CH24Pal]
modifications: lactam (positions not given here); also: macrolactam, ring places not given here
B8: SEQ ID NO: 223 (peptide)
peptide: [Bip(4'-COOH)][4Pal][Phe(4-COOH)]G[Pro(cis-4-F)][Trp(βS-Me,4-F)][Aib]SW[d(αMeD)][h4Pal]Q[Dap(CONH2)]G[dProc3CH24Pal]
modifications: lactam (positions not given here); also: macrolactam, ring places not given here
B9: SEQ ID NO: 224 (peptide)
peptide: [Bip(4'-COOH)][4Pal][Phe(4-COOH)]G[Pro(cis-4-F)][Trp(βS-Me,4-F)][Aib]SW[daMeSMe][Ala(pyrimidin-5-yl)]Q[Dab]G[dProc3CH24Pal]
modifications: lactam (positions not given here); also: macrolactam, ring places not given here
B10: SEQ ID NO: 225 (peptide)
peptide: [Bip(4'-COOH)][4Pal][Phe(4-COOH)]G[Pro(cis-4-F)][Trp(βS-Me,4-F)][Aib]S[Trp(4-Cl)][d(αMeD)][Ala(pyrimidin-5-yl)]Q[Dab]G[dProc3CH24Pal]
modifications: lactam (positions not given here); also: macrolactam, ring places not given here
B11: SEQ ID NO: 226 (peptide)
peptide: [Bip(4'-COOH)][4Pal][Phe(4-COOH)]G[Pro(cis-4-F)][Trp(βS-Me,4-F)][Aib]S[Trp(4-Cl)][d(αMeD)][Ala(pyrimidin-5-yl)]Q[Dap(CONH2)]G[dProc3CH24Pal]
modifications: lactam (positions not given here); also: macrolactam, ring places not given here
B12: SEQ ID NO: 227 (peptide)
peptide: [Bip(4'-COOH)][4Pal][Phe(4-COOH)]G[Pro(cis-4-F)][Trp(βS-Me,4-F)][Aib]SW[d(αMeD)][ThrOMe]Q[Dab]G[dProc3CH24Pal]
modifications: lactam (positions not given here); also: macrolactam, ring places not given here
B13: SEQ ID NO: 228 (peptide)
peptide: [Bip(4'-COOH)][4Pal][Phe(4-COOH)]G[Pro(cis-4-F)][Trp(βS-Me,4-F)][Aib]SW[d(αMeD)][ThrOMe]Q[Dap(CONH2)]G[dProc3CH24Pal]
modifications: lactam (positions not given here); also: macrolactam, ring places not given here
B14: SEQ ID NO: 229 (peptide)
peptide: [Bip(4'-COOH)][4Pal][Phe(4-COOH)]G[Pro(cis-4-F)][Trp(βS-Me,4-F)][Aib]SW[d(αMeD)][ThrOBn]Q[Dab]G[dProc3CH24Pal]
modifications: lactam (positions not given here); also: macrolactam, ring places not given here
B15: SEQ ID NO: 230 (peptide)
peptide: [Bip(4'-COOH)][4Pal][Phe(4-COOH)]G[Pro(cis-4-F)][Trp(βS-Me,4-F)][Aib]SW[d(αMeD)][Ala(pyrimidin-5-yl)]Q[Dap(CONH2)]G[dProc3CH24Pal]
modifications: lactam (positions not given here); also: macrolactam, ring places not given here
B16: SEQ ID NO: 231 (peptide)
peptide: [Bip(4'-COOH)][4Pal][Phe(4-COOH)]G[Pro(cis-4-F)][Trp(βS-Me,4-F)][Aib]SW[d(αMeD)][Nva]Q[Dab]G[dProc3CH24Pal]
modifications: lactam (positions not given here); also: macrolactam, ring places not given here
B17: SEQ ID NO: 232 (peptide)
peptide: [Bip(4'-COOH)][4Pal][Phe(4-COOH)]G[Pro(cis-4-F)][Trp(βS-Me,4-F)][Aib]SW[d(αMeD)][Nva(5,5,5-F3)]Q[Dab]G[dProc3CH24Pal]
modifications: lactam (positions not given here); also: macrolactam, ring places not given here
B18: SEQ ID NO: 233 (peptide)
peptide: [Bip(4'-COOH)][4Pal][Phe(4-COOH)]G[Pro(cis-4-F)][Trp(βS-Me,4-F)][Aib]SW[Aib][dPyrimA]Q[Dab]G[dProc3CH24Pal]
modifications: lactam (positions not given here); also: macrolactam, ring places not given here
B19: SEQ ID NO: 234 (peptide)
peptide: [Bip(4'-COOH)][4Pal][Phe(4-COOH)]G[Pro(cis-4-F)][Trp(βS-Me,4-F)][Aib]SW[Aib][dD]Q[Dab]G[dProc3CH24Pal]
modifications: lactam (positions not given here); also: macrolactam, ring places not given here
B20: SEQ ID NO: 235 (peptide)
peptide: [Bip(4'-COOH)][4Pal][Phe(4-COOH)]G[Pro(cis-4-F)][Trp(βS-Me,4-F)][Aib]SW[d(αMeD)][Ala(pyrimidin-5-yl)]Q[NMeDab]G[dProc3CH24Pal]
modifications: lactam (positions not given here); also: macrolactam, ring places not given here
B21: SEQ ID NO: 236 (peptide)
peptide: [Bip(4'-COOH)][4Pal][Phe(4-COOH)]G[Pro(cis-4-F)][Trp(βS-Me,4-F)][Aib]SW[d(αMeD)][dPhe(4-F)]Q[Dab]G[dProc3CH24Pal]
modifications: lactam (positions not given here); also: macrolactam, ring places not given here
B22: SEQ ID NO: 237 (peptide)
peptide: [Bip(4'-COOH)][4Pal][Phe(4-COOH)]G[Pro(cis-4-F)][Trp(βS-Me,4-F)][Aib]SW[d(αMeD)][dCha]Q[Dab]G[dProc3CH24Pal]
modifications: lactam (positions not given here); also: macrolactam, ring places not given here
B23: SEQ ID NO: 238 (peptide)
peptide: [Bip(4'-COOH)][4Pal][Phe(4-COOH)]G[Pro(cis-4-F)][Trp(βS-Me,4-F)][Aib]SW[d(αMeD)][dL]Q[Dab]G[dProc3CH24Pal]
modifications: lactam (positions not given here); also: macrolactam, ring places not given here

target: Recombinant human IL-1β (BioLegend 579404) (human, UniProt P01584 117-269); assay: cell-based or functional assay

Going from B1 to B2, the “MRC5 IC50” value rises from 0.008 nM to 0.028 nM (3.5-fold).

First: B3
Second: B4
The “MRC5 IC50” value of the first is 2-fold higher: 0.036 nM for the first, 0.018 nM for the second.

Compared with B5, B6 is 1.9-fold lower in “MRC5 IC50” value: 0.039 nM for the first, 0.02 nM for the second.

B7 and B8 are within 1.5-fold of each other in “MRC5 IC50” value: 0.02 nM for the first, 0.027 nM for the second.

First: B9
Second: B10
The “MRC5 IC50” value of the first is 1.6-fold higher: 0.03 nM for the first, 0.019 nM for the second.

Going from B11 to B12, the “MRC5 IC50” value falls from 0.022 nM to 0.014 nM (1.6-fold).

B13 and B14 are within 1.5-fold of each other in “MRC5 IC50” value: 0.021 nM for the first, 0.023 nM for the second.

B15 and B16 are within 1.5-fold of each other in “MRC5 IC50” value: 0.022 nM for the first, 0.027 nM for the second.

B17 and B18 are within 1.5-fold of each other in “MRC5 IC50” value: 0.022 nM for the first, 0.03 nM for the second.

B19 and B20 are within 1.5-fold of each other in “MRC5 IC50” value: 0.024 nM for the first, 0.018 nM for the second.

B21 and B22 are within 1.5-fold of each other in “MRC5 IC50” value: 0.021 nM for the first, 0.025 nM for the second.

B23 was tested, and the “MRC5 IC50” value was 0.024 nM.
